*1 amine or outer side, *2 acyl side, *3 side chain or, on linkers, in order; H or OH if unused. Bridges are numbered along the chain shown (N, C = ends). Where no end group is shown, it is not given here. [ ]: non-standard residue; d: D form. The star is where a group is joined. Phe(4-(2-(Boc)aminoethoxy)) = phenylalanine with 4-(2-(Boc-amino)ethoxy) on the ring, CC(C)(C)OC(=O)NCCOc1ccc(C[C@H](N[*:1])C(=O)[*:2])cc1; Phe(4-CONH2) = NC(=O)c1ccc(C[C@H](N)C(=O)O)cc1; Phe(3,5-F2) = N[C@@H](Cc1cc(F)cc(F)c1)C(=O)O; αMeW = C[C@](N)(Cc1c[nH]c2ccccc12)C(=O)O; 2Nal = N[C@@H](Cc1ccc2ccccc2c1)C(=O)O; AEF = NCCOc1ccc(C[C@H](N)C(=O)O)cc1; αMeY = C[C@](N)(Cc1ccc(O)cc1)C(=O)O; Cyclopropanecarbonyl = O=C(C1CC1)*; αMeF = C[C@](N)(Cc1ccccc1)C(=O)O; αMeE = C[C@](N)(CCC(=O)O)C(=O)O; Pen = CC(C)(S)[C@H](N)C(=O)O; αMeK = C[C@](N)(CCCCN)C(=O)O; αMeC = C[C@](N)(CS)C(=O)O; Ac6c = NC1(C(=O)O)CCCCC1; Thp = NC1(C(=O)O)CCOCC1; Abu = CC[C@H](N)C(=O)O; Aib = CC(C)(N)C(=O)O; Propionyl = CCC(=O)*; Alloc = C=CCOC(=O)*; Butyryl = CCCC(=O)*; Propyl = CCC*
T1: human IL-23R (interleukin-23 receptor) (human, UniProt Q5VWK5 24-629)
T1 sequence (looked up): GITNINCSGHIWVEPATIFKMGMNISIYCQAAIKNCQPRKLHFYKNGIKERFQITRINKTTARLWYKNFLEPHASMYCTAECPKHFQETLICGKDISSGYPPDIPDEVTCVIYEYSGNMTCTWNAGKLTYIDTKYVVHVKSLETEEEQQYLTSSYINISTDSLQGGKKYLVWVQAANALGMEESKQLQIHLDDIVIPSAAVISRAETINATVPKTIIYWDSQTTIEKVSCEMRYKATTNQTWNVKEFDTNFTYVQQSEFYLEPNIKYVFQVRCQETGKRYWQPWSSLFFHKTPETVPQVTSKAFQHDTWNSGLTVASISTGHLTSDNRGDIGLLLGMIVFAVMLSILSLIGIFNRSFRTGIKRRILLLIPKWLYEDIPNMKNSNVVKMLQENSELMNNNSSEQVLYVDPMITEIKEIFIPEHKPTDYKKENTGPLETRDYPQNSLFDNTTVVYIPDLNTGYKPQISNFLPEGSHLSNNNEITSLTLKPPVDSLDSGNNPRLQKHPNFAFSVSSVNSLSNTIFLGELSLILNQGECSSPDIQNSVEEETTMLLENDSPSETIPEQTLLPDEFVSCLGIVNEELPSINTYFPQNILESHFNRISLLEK


Each binder was assayed against T1, human IL-23R (interleukin-23 receptor) (assay: cell-based or functional assay).

Binder | PBMC pSTAT3 IC50 (nM)
Ac-[dR][Pen]QTWQ[Pen][AEF][2Nal][Thp]K(Propionyl)NF-NH2 (disulfide 2-7; SMILES CCC(=O)NCCCC[C@H](NC(=O)C1(NC(=O)[C@H](Cc2ccc3ccccc3c2)NC(=O)[C@H](Cc2ccc(OCCN)cc2)NC(=O)[C@H]2NC(=O)[C@H](CCC(N)=O)NC(=O)[C@H](Cc3c[nH]c4ccccc34)NC(=O)[C@H]([C@@H](C)O)NC(=O)[C@H](CCC(N)=O)NC(=O)[C@@H](NC(=O)[C@@H](CCCNC(=N)N)NC(C)=O)C(C)(C)SSC2(C)C)CCOCC1)C(=O)N[C@@H](CC(N)=O)C(=O)N[C@@H](Cc1ccccc1)C(N)=O) [Compound No. 54] | 47
Ac-[dR][Pen]QTWQ[Pen][AEF][2Nal][Thp]K(Ac)NF-NH2 (disulfide 2-7; SMILES CC(=O)NCCCC[C@H](NC(=O)C1(NC(=O)[C@H](Cc2ccc3ccccc3c2)NC(=O)[C@H](Cc2ccc(OCCN)cc2)NC(=O)[C@H]2NC(=O)[C@H](CCC(N)=O)NC(=O)[C@H](Cc3c[nH]c4ccccc34)NC(=O)[C@H]([C@@H](C)O)NC(=O)[C@H](CCC(N)=O)NC(=O)[C@@H](NC(=O)[C@@H](CCCNC(=N)N)NC(C)=O)C(C)(C)SSC2(C)C)CCOCC1)C(=O)N[C@@H](CC(N)=O)C(=O)N[C@@H](Cc1ccccc1)C(N)=O) [Compound No. 53] | 29
Ac-[dR][Abu]QTWQC[AEF][2Nal][Ac6c][αMeE]N[αMeF]-NH2 (thioether 2-7) [Compound No. 29] | 30
Ac-[dR][Abu]QTWQC[AEF][2Nal][Thp][Aib]NF-NH2 (thioether 2-7) [Compound No. 49] | 18
Ac-[dR][Abu]QTWQC[AEF][2Nal][Thp][αMeE]N[αMeW]-NH2 (thioether 2-7) [Compound No. 31] | 16
Ac-[dR][Abu]QTWQC[AEF][2Nal][Thp][Ac6c]N[αMeF]-NH2 (thioether 2-7) [Compound No. 50] | 14
Propyl-[dR][Abu]QTWQ[αMeC][AEF][2Nal][Thp]ENF-NH2 (thioether 2-7) [Compound No. 48] | 7.2
Ac-[dR][Abu]QTWQC[AEF][2Nal][Thp][αMeE]N[2Nal]-NH2 (thioether 2-7) [Compound No. 35] | 25
Propyl-[dR][Pen]QTWQ[Pen][AEF][2Nal][Thp]K(Alloc)NF-NH2 (disulfide 2-7; SMILES C=CCOC(=O)NCCCC[C@H](NC(=O)C1(NC(=O)[C@H](Cc2ccc3ccccc3c2)NC(=O)[C@H](Cc2ccc(OCCN)cc2)NC(=O)[C@H]2NC(=O)[C@H](CCC(N)=O)NC(=O)[C@H](Cc3c[nH]c4ccccc34)NC(=O)[C@H]([C@@H](C)O)NC(=O)[C@H](CCC(N)=O)NC(=O)[C@@H](NC(=O)[C@@H](CCCNC(=N)N)NCCC)C(C)(C)SSC2(C)C)CCOCC1)C(=O)N[C@@H](CC(N)=O)C(=O)N[C@@H](Cc1ccccc1)C(N)=O) [Compound No. 33] | 11
Ac-[dR][Abu]QTWQC[AEF][2Nal][Thp][αMeE]N[Thp]-NH2 (thioether 2-7) [Compound No. 37] | 11
Ac-[dR][Abu]QTWQC[AEF][2Nal][Ac6c][αMeE]N[Thp]-NH2 (thioether 2-7) [Compound No. 38] | 4.3
Ac-[dR][Pen]QTWQ[Pen][AEF][2Nal][Thp]K(Butyryl)N[Thp]-NH2 (disulfide 2-7; SMILES CCCC(=O)NCCCC[C@H](NC(=O)C1(NC(=O)[C@H](Cc2ccc3ccccc3c2)NC(=O)[C@H](Cc2ccc(OCCN)cc2)NC(=O)[C@H]2NC(=O)[C@H](CCC(N)=O)NC(=O)[C@H](Cc3c[nH]c4ccccc34)NC(=O)[C@H]([C@@H](C)O)NC(=O)[C@H](CCC(N)=O)NC(=O)[C@@H](NC(=O)[C@@H](CCCNC(=N)N)NC(C)=O)C(C)(C)SSC2(C)C)CCOCC1)C(=O)N[C@@H](CC(N)=O)C(=O)NC1(C(N)=O)CCOCC1) [Compound No. 52] | 16

Second part, the binder after the results:

PBMC pSTAT3 IC50 (nM) | Binder
2500 | Ac-[dR][Abu]QTWQC[Phe(3,4-diOMe)][2Nal][Thp][αMeE]N[αMeF]-NH2 (thioether 2-7) [Compound No. 41]
23 | Ac-[dR][Abu]QTWQC[AEF][2Nal][Ac6c][αMeE]NF[Aib]-NH2 (thioether 2-7) [Compound No. 28]
92 | Ac-[dR][Abu]QTWQ[Pen][AEF][2Nal][Ac6c][αMeE]N[Thp]-NH2 (thioether 2-7) [Compound No. 39]
5.8 | Ac-[dR][Abu]QTWQC[AEF][2Nal][Thp][αMeE]N[Phe(4-CONH2)]-NH2 (thioether 2-7) [Compound No. 34]
17 | Ac-[dR][Abu]QTWQC[AEF][2Nal][Ac6c][αMeE]NF[Aib][αMeK]-NH2 (thioether 2-7) [Compound No. 45]
19 | Ac-[dR][Abu]QTWQC[AEF][2Nal][Thp][αMeE]N[1(2Nal)]-NH2 (thioether 2-7) [Compound No. 32]
5.3 | [dR][Abu]QTWQC[Phe(4-(2-(Boc)aminoethoxy))][2Nal][Thp]EN[Thp]-NH2 (thioether 2-7) [Compound No. 47]
8.2 | Ac-[dR][Abu]QTWQC[AEF][2Nal][Thp][αMeE]NF[Aib][αMeK]-NH2 (thioether 2-7) [Compound No. 43]
14 | Ac-[dR][Abu]QTWQC[AEF][2Nal][Thp][αMeE]N[αMePhe(4-F)]-NH2 (thioether 2-7) [Compound No. 36]
220 | Ac-[dR]CQTWQ[Pen][AEF][2Nal][Ac6c][αMeE]N[αMeF]-NH2 (disulfide 2-7; SMILES CC(=O)N[C@H](CCCNC(=N)N)C(=O)N[C@H]1CSSC(C)(C)[C@@H](C(=O)N[C@@H](Cc2ccc(OCCN)cc2)C(=O)N[C@@H](Cc2ccc3ccccc3c2)C(=O)NC2(C(=O)N[C@@](C)(CCC(=O)O)C(=O)N[C@@H](CC(N)=O)C(=O)N[C@@](C)(Cc3ccccc3)C(N)=O)CCCCC2)NC(=O)[C@H](CCC(N)=O)NC(=O)[C@H](Cc2c[nH]c3ccccc23)NC(=O)[C@H]([C@@H](C)O)NC(=O)[C@H](CCC(N)=O)NC1=O) [Compound No. 40]
27 | Ac-[dR][Pen]QTWQ[Pen][AEF][2Nal][Thp]K(Cyclopropanecarbonyl)N[Thp]-NH2 (disulfide 2-7; SMILES CC(=O)N[C@H](CCCNC(=N)N)C(=O)N[C@@H]1C(=O)N[C@@H](CCC(N)=O)C(=O)N[C@@H]([C@@H](C)O)C(=O)N[C@@H](Cc2c[nH]c3ccccc23)C(=O)N[C@@H](CCC(N)=O)C(=O)N[C@H](C(=O)N[C@@H](Cc2ccc(OCCN)cc2)C(=O)N[C@@H](Cc2ccc3ccccc3c2)C(=O)NC2(C(=O)N[C@@H](CCCCNC(=O)C3CC3)C(=O)N[C@@H](CC(N)=O)C(=O)NC3(C(N)=O)CCOCC3)CCOCC2)C(C)(C)SSC1(C)C) [Compound No. 51]
9.3 | Ac-[dR][Abu]QTWQC[AEF][2Nal][Thp][αMeE]N[αMeY]-NH2 (thioether 2-7) [Compound No. 44]
48 | Ac-[dR][Abu]QTWQC[AEF][2Nal][Thp][αMeE]N[Phe(3,5-F2)]-NH2 (thioether 2-7) [Compound No. 46]
6.7 | Ac-[dR][Abu]QTWQC[AEF][2Nal][Ac6c]EN[Thp]-NH2 (thioether 2-7) [Compound No. 42]
11 | Ac-[dR][Abu]QTWQC[AEF][2Nal][Ac6c][αMeE]NF-NH2 (thioether 2-7) [Compound No. 27]
25 | Ac-[dR][Abu]QTWQC[AEF][2Nal][Thp]QN[αMeF]-NH2 (thioether 2-7) [Compound No. 30]
